Source: patent US20060099684A1

Target: activated type I collagenase
Assay: cell-based or functional assay

“T2N (three N-terminal disulfide-bonded loops of human TIMP-2, C-terminal His-tag, expressed in Pichia pastoris) (from UniProt P16035 27-153)” gave an IC50 of inhibition of MMP activity (quantitative radiometric 14C-collagen film assay) of 7.5 nM.
